From patent publication US20250313634A1 (WUXI BIOLOGICS SHANGHAI, published 2025)

Assays:
Experiment in all cases: capture ELISA on coated 1.14.4; relative to silent alanine substitutions
[1] = biological target: T1, hPD-L1_ECD.His point mutant G119A (human, UniProt Q9NZQ7 19-238)
T1 construct: extracellular domain
Outline: (§1)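 Capture ELISA in which supernatant containing quantified PD-L1 alanine mutant was detected with HRP anti-His antibody. Absorbance was normalized to the average of control mutants. Epitope residues were called at binding fold change <0.55.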

[2] = biological target: T2, hPD-L1_ECD.His point mutant S93A (human, UniProt Q9NZQ7 19-238)
T2 construct: extracellular domain
T2 sequence (Q9NZQ7 19-238 S93A): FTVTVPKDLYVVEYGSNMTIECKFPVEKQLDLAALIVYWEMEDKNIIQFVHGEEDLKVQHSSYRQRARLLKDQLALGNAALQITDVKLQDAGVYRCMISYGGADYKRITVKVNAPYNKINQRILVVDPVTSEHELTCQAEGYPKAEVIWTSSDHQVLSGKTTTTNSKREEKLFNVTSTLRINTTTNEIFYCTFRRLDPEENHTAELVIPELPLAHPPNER
Outline: as §1

[3] = biological target: T3, hPD-L1_ECD.His point mutant L27A (human, UniProt Q9NZQ7 19-238)
T3 construct: extracellular domain
T3 sequence (Q9NZQ7 19-238 L27A): as the sequence (Q9NZQ7 19-238 S93A) above, with L9A, A75S counted along it
Outline: as §1

[4] = biological target: T4, hPD-L1_ECD.His point mutant K185A (human, UniProt Q9NZQ7 19-238)
T4 construct: extracellular domain
T4 sequence (Q9NZQ7 19-238 K185A): as the sequence (Q9NZQ7 19-238 S93A) above, with A75S, K167A counted along it
Outline: as §1

[5] = biological target: T5, hPD-L1_ECD.His point mutant E72A (human, UniProt Q9NZQ7 19-238)
T5 construct: extracellular domain
T5 sequence (Q9NZQ7 19-238 E72A): as the sequence (Q9NZQ7 19-238 S93A) above, with E54A, A75S counted along it
Outline: as §1

[6] = biological target: T6, hPD-L1_ECD.His point mutant P161A (human, UniProt Q9NZQ7 19-238)
T6 construct: extracellular domain
T6 sequence (Q9NZQ7 19-238 P161A): as the sequence (Q9NZQ7 19-238 S93A) above, with A75S, P143A counted along it
Outline: as §1

[7] = biological target: T7, hPD-L1_ECD.His point mutant V23A (human, UniProt Q9NZQ7 19-238)
T7 construct: extracellular domain
T7 sequence (Q9NZQ7 19-238 V23A): as the sequence (Q9NZQ7 19-238 S93A) above, with V5A, A75S counted along it
Outline: as §1

[8] = biological target: T8, hPD-L1_ECD.His point mutant P24A (human, UniProt Q9NZQ7 19-238)
T8 construct: extracellular domain
T8 sequence (Q9NZQ7 19-238 P24A): as the sequence (Q9NZQ7 19-238 S93A) above, with P6A, A75S counted along it
Outline: as §1

[9] = biological target: T9, hPD-L1_ECD.His point mutant N63A (human, UniProt Q9NZQ7 19-238)
T9 construct: extracellular domain
T9 sequence (Q9NZQ7 19-238 N63A): as the sequence (Q9NZQ7 19-238 S93A) above, with N45A, A75S counted along it
Outline: as §1

[10] = biological target: T10, hPD-L1_ECD.His point mutant N96A (human, UniProt Q9NZQ7 19-238)
T10 construct: extracellular domain
T10 sequence (Q9NZQ7 19-238 N96A): as the sequence (Q9NZQ7 19-238 S93A) above, with A75S, N78A counted along it
Outline: as §1

[11] = biological target: T11, hPD-L1_ECD.His point mutant E58A (human, UniProt Q9NZQ7 19-238)
T11 construct: extracellular domain
T11 sequence (Q9NZQ7 19-238 E58A): as the sequence (Q9NZQ7 19-238 S93A) above, with E40A, A75S counted along it
Outline: as §1

[12] = biological target: T12, hPD-L1_ECD.His point mutant I64A (human, UniProt Q9NZQ7 19-238)
T12 construct: extracellular domain
T12 sequence (Q9NZQ7 19-238 I64A): as the sequence (Q9NZQ7 19-238 S93A) above, with I46A, A75S counted along it
Outline: as §1

[13] = biological target: T13, hPD-L1_ECD.His point mutant K129A (human, UniProt Q9NZQ7 19-238)
T13 construct: extracellular domain
T13 sequence (Q9NZQ7 19-238 K129A): as the sequence (Q9NZQ7 19-238 S93A) above, with A75S, K111A counted along it
Outline: as §1

[14] = biological target: T14, hPD-L1_ECD.His point mutant G120A (human, UniProt Q9NZQ7 19-238)
T14 construct: extracellular domain
T14 sequence (Q9NZQ7 19-238 G120A): as the sequence (Q9NZQ7 19-238 S93A) above, with A75S, G102A counted along it
Outline: as §1

[15] = biological target: T15, hPD-L1_ECD.His point mutant T20A (human, UniProt Q9NZQ7 19-238)
T15 construct: extracellular domain
T15 sequence (Q9NZQ7 19-238 T20A): as the sequence (Q9NZQ7 19-238 S93A) above, with T2A, A75S counted along it
Outline: as §1

[16] = biological target: T16, hPD-L1_ECD.His point mutant D215A (human, UniProt Q9NZQ7 19-238)
T16 construct: extracellular domain
T16 sequence (Q9NZQ7 19-238 D215A): as the sequence (Q9NZQ7 19-238 S93A) above, with A75S, D197A counted along it
Outline: as §1

[17] = biological target: T17, hPD-L1_ECD.His point mutant Q47A (human, UniProt Q9NZQ7 19-238)
T17 construct: extracellular domain
T17 sequence (Q9NZQ7 19-238 Q47A): as the sequence (Q9NZQ7 19-238 S93A) above, with Q29A, A75S counted along it
Outline: as §1

[18] = biological target: T18, hPD-L1_ECD.His point mutant R86A (human, UniProt Q9NZQ7 19-238)
T18 construct: extracellular domain
T18 sequence (Q9NZQ7 19-238 R86A): as the sequence (Q9NZQ7 19-238 S93A) above, with R68A, A75S counted along it
Outline: as §1

[19] = biological target: T19, hPD-L1_ECD.His point mutant D90A (human, UniProt Q9NZQ7 19-238)
T19 construct: extracellular domain
T19 sequence (Q9NZQ7 19-238 D90A): as the sequence (Q9NZQ7 19-238 S93A) above, with D72A, A75S counted along it
Outline: as §1

[20] = biological target: T20, hPD-L1_ECD.His point mutant H69A (human, UniProt Q9NZQ7 19-238)
T20 construct: extracellular domain
T20 sequence (Q9NZQ7 19-238 H69A): as the sequence (Q9NZQ7 19-238 S93A) above, with H51A, A75S counted along it
Outline: as §1

[21] = biological target: T21, hPD-L1_ECD.His point mutant G159A (human, UniProt Q9NZQ7 19-238)
T21 construct: extracellular domain
T21 sequence (Q9NZQ7 19-238 G159A): as the sequence (Q9NZQ7 19-238 S93A) above, with A75S, G141A counted along it
Outline: as §1

[22] = biological target: T22, hPD-L1_ECD.His point mutant E39A (human, UniProt Q9NZQ7 19-238)
T22 construct: extracellular domain
T22 sequence (Q9NZQ7 19-238 E39A): as the sequence (Q9NZQ7 19-238 S93A) above, with E21A, A75S counted along it
Outline: as §1

[23] = biological target: T23, hPD-L1_ECD.His point mutant S34A (human, UniProt Q9NZQ7 19-238)
T23 construct: extracellular domain
T23 sequence (Q9NZQ7 19-238 S34A): as the sequence (Q9NZQ7 19-238 S93A) above, with S16A, A75S counted along it
Outline: as §1

[24] = biological target: T24, hPD-L1_ECD.His point mutant F19A (human, UniProt Q9NZQ7 19-238)
T24 construct: extracellular domain
T24 sequence (Q9NZQ7 19-238 F19A): as the sequence (Q9NZQ7 19-238 S93A) above, with F1A, A75S counted along it
Outline: as §1

[25] = biological target: T25, hPD-L1_ECD.His point mutant V143A (human, UniProt Q9NZQ7 19-238)
T25 construct: extracellular domain
T25 sequence (Q9NZQ7 19-238 V143A): as the sequence (Q9NZQ7 19-238 S93A) above, with A75S, V125A counted along it
Outline: as §1

[26] = biological target: T26, hPD-L1_ECD.His point mutant K162A (human, UniProt Q9NZQ7 19-238)
T26 construct: extracellular domain
T26 sequence (Q9NZQ7 19-238 K162A): as the sequence (Q9NZQ7 19-238 S93A) above, with A75S, K144A counted along it
Outline: as §1

T1 sequence (Q9NZQ7 19-238 G119A): as the sequence (Q9NZQ7 19-238 S93A) above, with A75S, G101A counted along it

B1: 1.14.4 (antibody, V domains shown)
VH: EVQLLESGGGLVQPGGSLRLSCAASGFTFSSYAMSWVRQAPGKGLEWVSGISGSGGFTYYADSVKGRFTISRDNSKNTLYLQMNSLRAEDTAVYYCAKPPRGYNYGPFDYWGQGTLVTVSS
VL: SYVLTQPPSVSVAPGQTARITCGGNNIGSKSVHWYQQKPGQAPVLVVYDDSDRPSGIPERFSGSNSGNTATLTISRVEAGDEADYYCQVWDSSSDHVVFGGGTKLTVL
notes: Fully human monoclonal antibody with a human constant region of IgG4 isotype
- fold change [1]: 0.825 fold
- fold change [2]: 1.15 fold
- fold change [3]: 0.949 fold
- fold change [4]: 0.853 fold
- fold change [5]: 0.748 fold
- fold change [6]: 0.332 fold
- fold change [7]: 0.948 fold
- fold change [8]: 0.907 fold
- fold change [9]: 0.285 fold
- fold change [10]: 0.924 fold
- fold change [11]: 0.399 fold
- fold change [12]: 0.716 fold
- fold change [13]: 0.586 fold
- fold change [14]: 0.895 fold
- fold change [15]: 0.974 fold
- fold change [16]: 0.811 fold
- fold change [17]: 1.05 fold
- fold change [18]: 1 fold
- fold change [19]: 0.858 fold
- fold change [20]: 1.06 fold
- fold change [21]: 0.448 fold
- fold change [22]: 0.831 fold
- fold change [23]: 0.813 fold
- fold change [24]: 0.78 fold
- fold change [25]: 1.02 fold
- fold change [26]: 0.99 fold
